From CN101896199A

Experiments:
[1] = biological target: HBV表面抗原 (hepatitis B virus surface antigen) (乙型肝炎病毒(HBV)); test: ELISA titre (method of Shin YW et al. 2007); formulation after 6 months, 25℃, 60% R.H.
[2] = biological target: HBV表面抗原 (hepatitis B virus surface antigen) (乙型肝炎病毒(HBV)); test: ELISA titre (method of Shin YW et al. 2007); formulation after 3 months
[3] = biological target: HBV表面抗原 (hepatitis B virus surface antigen) (乙型肝炎病毒(HBV)); test: ELISA titre (method of Shin YW et al. 2007); formulation after 3 months, 25℃, 60% R.H.
[4] = biological target: HBV表面抗原 (hepatitis B virus surface antigen) (乙型肝炎病毒(HBV)); test: ELISA titre (method of Shin YW et al. 2007); formulation at 0 weeks, 25℃, 60% R.H.

Measured: 滴度(IU/mg)

Hepabig基因 (从细胞系HBAb-49, 登录号KCLRF-BP-00054, 产生的针对HBV表面抗原的人抗体) (antibody)
> 2000 IU/mg: all assays above
